Patent publication US8415393B2, “Anti-bacterial drug targeting of genome maintenance interfaces” (Wisconsin Alumni Research Foundation, priority 2007, dated 2013)
Where no end group is shown, it is not given here. fluorescein = fluorescein moiety attached to the N-terminus of the peptide (N-terminal fluorescein label)

Columns and labels:
E. coli Exonuclease I = target: T1, E. coli Exonuclease I (Escherichia coli, UniProt P04995 1-475); experiment: fluorescence anisotropy equilibrium binding (Kd,app), ExoI titrated into fluorescein-labeled peptide
T1 construct: also called ExoI; Exol
T1 sequence: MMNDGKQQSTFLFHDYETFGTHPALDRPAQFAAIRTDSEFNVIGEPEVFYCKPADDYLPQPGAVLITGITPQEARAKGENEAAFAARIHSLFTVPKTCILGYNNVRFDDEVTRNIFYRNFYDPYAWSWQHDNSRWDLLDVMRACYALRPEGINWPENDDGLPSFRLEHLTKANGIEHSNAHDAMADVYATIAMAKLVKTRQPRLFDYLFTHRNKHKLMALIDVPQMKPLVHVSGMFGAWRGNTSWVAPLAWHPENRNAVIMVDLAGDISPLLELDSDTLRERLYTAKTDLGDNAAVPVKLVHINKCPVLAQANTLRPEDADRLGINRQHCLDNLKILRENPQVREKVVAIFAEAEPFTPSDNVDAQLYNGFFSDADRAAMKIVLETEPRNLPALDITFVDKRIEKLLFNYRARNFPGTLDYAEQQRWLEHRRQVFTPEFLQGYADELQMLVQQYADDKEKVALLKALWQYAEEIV

ExoI Asp319Ala variant = target: T2, ExoI Asp319Ala variant (Escherichia coli, UniProt P04995 1-475); experiment: fluorescence anisotropy equilibrium binding (Kd,app), ExoI variant titrated into fluorescein-labeled peptide
T2 construct: also called D319A; Asp319 variant
T2 sequence: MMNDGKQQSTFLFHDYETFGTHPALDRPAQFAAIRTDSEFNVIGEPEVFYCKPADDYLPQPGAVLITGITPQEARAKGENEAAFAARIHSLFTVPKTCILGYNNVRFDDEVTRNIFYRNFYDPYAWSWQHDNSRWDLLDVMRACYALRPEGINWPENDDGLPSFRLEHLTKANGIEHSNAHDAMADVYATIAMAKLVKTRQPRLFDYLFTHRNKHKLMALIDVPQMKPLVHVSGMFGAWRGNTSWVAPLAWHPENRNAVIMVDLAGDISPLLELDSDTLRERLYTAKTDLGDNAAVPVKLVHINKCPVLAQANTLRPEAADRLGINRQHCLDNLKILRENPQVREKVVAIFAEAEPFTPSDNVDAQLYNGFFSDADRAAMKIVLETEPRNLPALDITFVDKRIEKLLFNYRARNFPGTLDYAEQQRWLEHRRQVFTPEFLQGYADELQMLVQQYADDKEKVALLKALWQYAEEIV

ExoI Arg327Ala variant = target: T3, ExoI Arg327Ala variant (Escherichia coli, UniProt P04995 1-475); experiment: as above
T3 construct: also called R327A
T3 sequence: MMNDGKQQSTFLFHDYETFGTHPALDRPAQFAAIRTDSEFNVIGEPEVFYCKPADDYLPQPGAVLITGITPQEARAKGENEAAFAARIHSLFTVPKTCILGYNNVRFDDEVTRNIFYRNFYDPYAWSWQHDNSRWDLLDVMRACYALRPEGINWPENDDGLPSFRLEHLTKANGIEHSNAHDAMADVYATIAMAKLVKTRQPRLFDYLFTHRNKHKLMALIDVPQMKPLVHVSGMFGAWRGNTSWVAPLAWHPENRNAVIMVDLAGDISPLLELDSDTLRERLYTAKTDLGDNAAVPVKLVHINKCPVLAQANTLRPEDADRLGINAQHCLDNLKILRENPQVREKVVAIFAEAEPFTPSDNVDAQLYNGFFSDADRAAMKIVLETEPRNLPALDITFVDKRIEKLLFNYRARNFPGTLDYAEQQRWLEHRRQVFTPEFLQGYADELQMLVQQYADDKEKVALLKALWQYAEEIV

ExoI Leu331Ala variant = target: T4, ExoI Leu331Ala variant (Escherichia coli, UniProt P04995 1-475); experiment: as above
T4 construct: also called L331A
T4 sequence: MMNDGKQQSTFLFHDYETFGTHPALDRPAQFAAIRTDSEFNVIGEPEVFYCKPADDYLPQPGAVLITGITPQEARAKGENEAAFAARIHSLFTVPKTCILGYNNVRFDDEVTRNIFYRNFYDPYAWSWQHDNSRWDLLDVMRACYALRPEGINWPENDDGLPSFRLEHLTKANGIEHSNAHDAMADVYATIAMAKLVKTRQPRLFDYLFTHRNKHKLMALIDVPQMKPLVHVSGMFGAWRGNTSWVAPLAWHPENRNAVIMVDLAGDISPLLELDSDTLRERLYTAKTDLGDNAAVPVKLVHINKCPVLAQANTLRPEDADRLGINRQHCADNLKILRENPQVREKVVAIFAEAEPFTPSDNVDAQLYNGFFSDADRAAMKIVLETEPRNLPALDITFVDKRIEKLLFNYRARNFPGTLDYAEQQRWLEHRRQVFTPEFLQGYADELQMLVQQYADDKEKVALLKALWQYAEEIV

ExoI Arg338Ala variant = target: T5, ExoI Arg338Ala variant (Escherichia coli, UniProt P04995 1-475); experiment: as above
T5 construct: basic ridge residue; also called R338A; Arg338 variant
T5 sequence: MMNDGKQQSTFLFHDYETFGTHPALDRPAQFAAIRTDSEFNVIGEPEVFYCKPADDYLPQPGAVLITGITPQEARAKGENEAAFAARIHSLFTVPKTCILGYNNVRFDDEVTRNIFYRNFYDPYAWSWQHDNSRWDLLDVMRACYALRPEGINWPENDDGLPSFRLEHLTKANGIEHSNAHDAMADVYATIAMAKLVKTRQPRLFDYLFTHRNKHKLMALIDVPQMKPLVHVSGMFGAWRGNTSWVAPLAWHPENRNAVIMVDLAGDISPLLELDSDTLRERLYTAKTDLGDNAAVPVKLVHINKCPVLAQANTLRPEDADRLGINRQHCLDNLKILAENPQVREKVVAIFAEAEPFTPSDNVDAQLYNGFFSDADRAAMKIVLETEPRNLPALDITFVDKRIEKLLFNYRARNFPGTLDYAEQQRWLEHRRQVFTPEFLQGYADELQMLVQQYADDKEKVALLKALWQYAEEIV

fluorescein-WMDFDDDIPF (also called F-SSB-Ct; F-WT) [fluorescein-labeled SSB C-terminal peptide (fluorescein-WMDFDDDIPF)] gave a Kd (E. coli Exonuclease I) of 136 nM, a Kd (ExoI Asp319Ala variant) of 299 nM and a Kd (ExoI Arg327Ala variant) of 270 nM. The Kd (ExoI Leu331Ala variant) was 193 nM and the Kd (ExoI Arg338Ala variant) was 398 nM.
